Patent US20130078247A1 (Boehringer Ingelheim, published 2013)

B1: DLLBII101F01 (VHH)
VHH: EVQLVESGGGLVQAGGSLRLSCAASGRTFSNYAMGWFRQAPGKEREFVAAISWSGGDTYYADSVKGRFTISRDNAKNTVCLQMNSLKPEDTAVYYCAASFQSGAAPGANFYDYWGQGTQVTVSS
notes: also called DLLBII101F1; not shown: C-terminal c-myc and His6 tags
B2: DLLBII104A03 (VHH)
VHH: EVQLVESGGGLVQAGGSLRLSCAASGDIPRIAAMGWYRQAPGKQRELVATVSNAATTRYADSAKGRFTISRDNAKTVSLQMDNLKPEDTGVYYCYSLATTVTPSWVNYWGQGTQVTVSS
notes: also called DLLBII104A3; not shown: C-terminal c-myc and His6 tags
B3: DLLBII104B05 (VHH)
VHH: EVQLVESGGGSVQAGGSLRLSCAASGSISRIDVMAWYRQAPGKERELVASISSGGSTNYADSVKGRFTISREYFKNMMYLQMNSLKFEDTAVYYCNADSRRGGVGNFFRSWGQGTQVTVSS
notes: also called DLLBII104B5; DLLBII1040B05; not shown: C-terminal c-myc and His6 tags
B4: DLLBII107C03 (VHH)
VHH: EVQLVESGGGLVQPGGSLRLSCEVSGSIGSVSDMRWYRQAPGLQYELVARITSGSITDYSDSVKGRFTISRDNAKNTVYLQMNSLKPEDTAVYYCNADVQHSAWLKPLTYWGQGTQVTVSS
notes: also called DLLBII107C3; not shown: C-terminal c-myc and His6 tags
B5: DLLBII112A04 (VHH)
VHH: EVQLVESGGGLVQAGGSLRLSCAAFGRTPYGMGWFRQAPGKEREFVAAITSDGSTNYADSVKGRFTISRDNAKNAVSLQMNSLKPEDTAVYYCTAPYYSDFEGTTTEYDYWGQGTQVTVSS
notes: also called DLLBII112A4; not shown: C-terminal c-myc and His6 tags
B6: DLLBII112E07 (VHH)
VHH: EVQLVESGGGLVQAGGSLRLSCAASGRTVRSYATGWFRQAPGKEREFVAALRWSIGSIASVYYDDSVKGRFTISGDNAENTVYLQMNALKPEDTAIYYCASTTRGRYSALSASAYDYWGQGTQVTVSS
notes: also called DLLBII112E7; not shown: C-terminal c-myc and His6 tags
B7: DLLBII101H09 (VHH)
VHH: EVQLVESGGGLVQPGGSLRLSCAASGFTLGYYTIVWFRQAPGKERKGVSCISSRDGSRYYADSVKGRFTISRDNAKNTVYLRMNSLKPEDTAVYYCAAGPDCSSYDYWGQGTQVTVSS
notes: also called DLLBII101H9; DLL1BII101H09; not shown: C-terminal c-myc and His6 tags
B8: DLLBII104C04 (VHH)
VHH: EVQLVESGGGLVQAGGSLRLSCAAAGSTFSSYVMGWYRQAPGKQRELVAHISTRGITYYADSVKGRFTISRDNAKNTMYLQMNSLKPEDTAVYYCNTRRNFLSNYWGQGTQVTVSS
notes: also called DLLBII104C4; not shown: C-terminal c-myc and His6 tags

Columns and labels:
[1] = target: T1, mouse DLL4, full length, overexpressed on CHO or HEK293 cells (mouse, UniProt Q9JI71 27-686); assay: periplasmic extract; FMAT, Notch1/Fc on CHO-mDLL4
T1 construct: whole, on cells; also called CHO-mDLL4; CHO-mDII4
Text: (§1) All calculations are based on the FL1_total signal which comprises the average of the fluorescence per well times the number of counts per well.

[2] = target: T2, human DLL4, full length, overexpressed on CHO or HEK293 cells (human, UniProt Q9NR61 27-685); assay: periplasmic extract; FMAT, Notch1/Fc on CHO-hDLL4
T2 construct: also called CHO-hDLL4; CHO-hDII4
Text: as §1

T1 sequence (Q9JI71 27-686): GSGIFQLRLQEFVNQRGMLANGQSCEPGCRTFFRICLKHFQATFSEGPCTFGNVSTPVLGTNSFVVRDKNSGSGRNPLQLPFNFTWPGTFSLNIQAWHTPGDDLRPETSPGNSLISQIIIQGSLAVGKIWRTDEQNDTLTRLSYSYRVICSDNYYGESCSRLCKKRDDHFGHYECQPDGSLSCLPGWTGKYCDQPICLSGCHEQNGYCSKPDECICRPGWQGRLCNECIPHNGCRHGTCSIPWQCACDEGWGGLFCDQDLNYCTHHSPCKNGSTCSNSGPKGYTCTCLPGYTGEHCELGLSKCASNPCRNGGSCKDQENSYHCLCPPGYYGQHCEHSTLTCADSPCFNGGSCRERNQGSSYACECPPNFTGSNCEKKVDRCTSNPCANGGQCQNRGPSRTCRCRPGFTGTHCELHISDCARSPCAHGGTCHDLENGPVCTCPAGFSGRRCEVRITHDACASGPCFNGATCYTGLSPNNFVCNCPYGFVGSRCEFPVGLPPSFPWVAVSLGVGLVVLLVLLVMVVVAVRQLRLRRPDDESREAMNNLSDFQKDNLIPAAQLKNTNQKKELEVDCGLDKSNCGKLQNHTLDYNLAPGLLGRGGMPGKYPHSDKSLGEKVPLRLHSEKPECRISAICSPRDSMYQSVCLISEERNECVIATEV

Row | % inhibition [1] | % inhibition [2] | Binder
1 | 78% | 85% | B1
2 | 83% | 86% | B2
3 | 78% | 86% | B3
4 | 80% | 75% | B4
5 | 90% | 75% | B5
6 | 85% | 80% | B6
7 | 75% | 87% | B7
8 | 83% | 87% | B8
